Source: patent publication US20210238281A1 (INSTITUT NATIONAL DE LA SANTE ET DE LA RECHERCHE MEDICALE …, published 2021)

T1: recombinant human MOG protein (human, UniProt Q16653 30-154, limits assumed)
T1 construct: Bought recombinant protein; also called HMOG
T1 sequence (looked up): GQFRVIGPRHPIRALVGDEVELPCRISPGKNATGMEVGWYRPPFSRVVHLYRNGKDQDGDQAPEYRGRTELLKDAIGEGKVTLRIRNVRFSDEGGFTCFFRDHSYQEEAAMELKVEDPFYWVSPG

T2: recombinant murine MOG protein (murine, UniProt Q61885 29-156, limits assumed)
T2 construct: Bought recombinant protein; also called MMOG
T2 sequence (looked up): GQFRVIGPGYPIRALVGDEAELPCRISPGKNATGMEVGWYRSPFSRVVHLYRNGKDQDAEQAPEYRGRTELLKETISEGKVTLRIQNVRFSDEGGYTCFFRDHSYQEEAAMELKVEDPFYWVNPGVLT

B1: anti-MOG MO3J-05 antibody (scFv, V domains shown)
VH: EVQLVQSGAEVKKPGASVKVSCKASGYTFTSYGISWVRQAPGQGLEWMGWISAYNGNTNYAQKLQGRVTMTTDTSTSTAYMELRSLRSDDTAVYYCARNMGCSSTSCFVSWFDPWGQGTLVTVSS
VL: not shown
B2: anti-MOG MO3J-19 antibody (scFv, V domains shown)
VH: B1 VH
VL: QSVLTQPPSASGTPGQRVTISCSGSTSNIGSQIVNWYQQLPGTAPRLIIYNDNERPSGVSDRFSGSKSDTSASLAISGLQSEDEADYYCAAWDDSLNGYVFGTGTKVTVL
B3: anti-MOG MO3J-26 antibody (scFv, V domains shown)
VH: QVQLVQSGAEVKKPGSSVKVSCKASGGTFSTYTLSWVRQAPGKGLEWMGGFDPEDGETIYAQKFQGRVTMTEDTSTDTAYLELSSLRSDDTAVYYCAADEFWGPGTLVTVSS
VL: QSVLTQPPSVSAAPGQTVTISCSGSSSNIGNNYVSWYQQLPGTAPKLLIYDNNKRPSGIPDRFSGSKSGTSATLGITGLQTGDEADYYCGTWDSSLSAVVFGGGTKLTVL
B4: anti-MOG MO3J-12 antibody (scFv, V domains shown)
VH: EVQLLESGGGLVQPGGSLRLSCAASGFTFSTYWMHWVRQAPGRGLVWVSRINTDGSSTDYADSVKGRFTISRDNAKNTLYLQMNSLRAEDTAVYSCARGGQLVAAANDNWLDPWGQGTLVTVSS
VL: AIQLTQSPSSLSASAGDRVTITCRASQSINNYLNWYQQKPGKAPKVLIYGASNLQSGVPSRFSGSGSGTDFTLTISSLQPEDFATYYCQQSYSTPRTFGQGTKVEIK
B5: anti-MOG MO3F-02 antibody (scFv, V domains shown)
VH: QVQLQQSGPGLVKPSQTLSLTCAISGDSVSSNSAAWNWIRKSPSRGLEWLGRTYYRSKWYNDYAVSVKSRITINPDTSKNQFSLQLSSVTPEDTAVYYCARASAGTFGYWGQGTLVTVSS
VL: DIVMTQSPSSLSASVGDRVTMTCRASQTINTYLNWYQQKPGKAPKLLIYAASTLQSGVPSRFSGSGSGTDFSLTISSLQPEDFATYYCQHGYNNPPFTFGPGTKVDIK
B6: anti-MOG MO4B-42 antibody (scFv, V domains shown)
VH: MAGSLQVDQVQLVQSGAEVKRPGESLKISCEGSGYSFTSSWIGWVRQMPGKGLECMGIIYPGDSDTRYSPSFQGHVTISADKSISTAYLQWSSLRASDTAMYYCARAYHSDYGFDFWGQGTLVTVSS
VL: EIVLTQPLSVSESPGKTVTISCTRSSGSIANNFVQWYQRRPGSSPTTVIYENDQRPSGVPDRFSGSIDSSSNSASLTITGLETQDEADYYCQSFNDDVGGGNSGGGTK
B7: anti-MOG MO3J-23 antibody (scFv, V domains shown)
VH: DQVQLVQSGAEVKPGASVKVSCKASGYTFTSYGISWVRQAPGQGLEWMGWISAYNGNTNYAQKLQGRVTMTTDTSTSTAYMELRSLRSDDTAVYYCARDPVGSLRPYYMDVWGEGTTVTVSS
VL: DIVMTQSPSTLSASVGDRVTITCRASQSISTWLAWYQQKPGKAPKLLIYAASSLQSGVPSRFSGSGSGTDFTLTISSLQPEDFATYYCQQSYSTPRTFGQGTKVEIK
B8: anti-MOG MO4B-43 antibody (scFv, V domains shown)
VH: DEVQLLESGGGLVPGGSLRLSCEVSGFSFSNHAMHWVRQAPGKALEHLSVLGSDGRSTYYADSVKGRFTISRDISKTTVYLQMGSLRPGDMGVYYCARGLYGDHWDASDLWGQGTMVTVSS
VL: EIVMTQSPATLSVSPAERVILSCRASQSVGNNVAWFQQKPGQAPRLLIHGASSRATGIPTRFSGSGSGTELTLTISSLQSEDFAVYYCQQYGSAPITFGQGTRLEIK

molecular target: T1, recombinant human MOG protein; experiment: phage-scFv ELISA on coated recombinant human MOG (0.5 µg/well), anti-M13 HRP, OD450 over BSA background
Protocol: (§1) The binding characteristics of the scFvs expressed on the surface of the phages isolated during the screening were determined using an ELISA assay using the recombinant MOG protein (R&D system). Along with the selected clones, phage-scFv-8-18C5 is expressed to serve as a positive control for ELISA. Briefly, phage-scFv were produced in the form of clones isolated on a 96-well plate in 800 μl of 2YT/ampicillin/glucose cultures infected with the helper phage M13K07 (as described previously). The phages produced overnight at 26° C. were then recovered in the supernatants after 30 minutes of centrifugation at 3000 g. These supernatants were directly diluted 1/2 in PBS/4% BSA/0.1% Tween 20 and tested on Maxisorp immunoplates previously coated with 0.5 μg of human or murine MOG or PBS (background control (bdf) in BSA)/well and blocked with 4% BSA in PBS. After incubation for 2 hours at 37° C., the wells were washed 3 times with PBS/0.1% Tween-20 and bound phages-scfv were detected with anti-M13 HRP antibody (GE Healthcare). The plate is read at 450 nm (OD) on a plate reader (TECAN). The results are expressed as a ratio: OD on target/OD bdf (OD on an uncoated plate saturated with BSA) and the ratios are compared with that obtained for the positive control.

ratio OD on target/OD bdf [ratio] | Binder
16.4 | B1
11.7 | B2
14.6 | B3
16.4 | B4
13.8 | B5
6.11 | B6
15.9 | B7
5.82 | B8

molecular target: T2, recombinant murine MOG protein; experiment: phage-scFv ELISA on coated recombinant murine MOG (0.5 µg/well), anti-M13 HRP, OD450 over BSA background
Protocol: as §1

ratio OD on target/OD bdf [ratio] | Binder
7.53 | B1
5.66 | B2
3.62 | B3
8.99 | B4
22.1 | B5
6.68 | B6
7.46 | B7
9.56 | B8
